The record followed here is publication doi:10.1101/2025.07.06.663161 (bioRxiv, 2025).

Changes are numbered by the printed parent chain. In names and notes the source's numbering stands.

This series deals with the molecule itself. Briefly: atomic force microscopy.

B1: Recombinant wild-type Cdc19, Strep-tagged (SUMO tag cleaved off) (natural protein)
chain: MSRLERLTSLNVVAGSDLRRTSIIGTIGPKTNNPETLVALRKAGLNIVRMNFSHGSYEYHKSVIDNARKSEELYPGRPLAIALDTKGPEIRTGTTTNDVDYPIPPNHEMIFTTDDKYAKACDDKIMYVDYKNITKVISAGRIIYVDDGVLSFQVLEVVDDKTLKVKALNAGKICSHKGVNLPGTDVDLPALSEKDKEDLRFGVKNGVHMVFASFIRTANDVLTIREVLGEQGKDVKIIVKIENQQGVNNFDEILKVTDGVMVARGDLGIEIPAPEVLAVQKKLIAKSNLAGKPVICATQMLESMTYNPRPTRAEVSDVGNAILDGADCVMLSGETAKGNYPINAVTTMAETAVIAEQAIAYLPNYDDMRNCTPKPTSTTETVAASAVAAVFEQKAKAIIVLSTSGTTPRLVSKYRPNCPIILVTRCPRAARFSHLYRGVFPFVFEKEPVSDWTDDVEARINFGIEKAKEFGILKKGDTYVSIQGFKAGAGHSNTLQVSTV
With B1, the binding result is on record as “binds”.

B2: Recombinant phosphomimicking Cdc19-3E (S56E, S70E, S175E), Strep-tagged (SUMO tag cleaved off) (natural protein)
chain: B1 chain with S56E, S70E, S175E
Take B2: the binding result was “binds”.
